The source of these data is paper PMC5431086, “The Rational Design of Therapeutic Peptides for Aminopeptidase N using a Substrate-Based Approach” (Scientific Reports, 2017).

The target of assay [1] is recombinant human aminopeptidase N (hAPN) (human) (UniProt P15144). Nature of the assay: enzyme inhibition assay (competition with the fluorogenic substrate H-Ala-AMC); 0.1 μM APN, 100 μM H-Ala-AMC, 100 mM Tris pH 7.2, Brij 35 0.0002% w/v, 37 °C, triplicate; inhibition competitive, Ki from the IC50 by the Cheng-Prusoff equation.
Assay [2] has as its target aminopeptidase N on the surface of PC3 cells (human (endogenous in PC3)) (UniProt P15144).
A further assay concerns the target chymotrypsin. Nature of the assay: enzyme inhibition assay (panel of proteases); cyc-LHSPW tested against a panel of cancer-associated proteases (Fig. 5A); conditions not given.

Starred links: 1 amine or outer side, 2 acyl side, 3 side chain; linkers in the order of their positions; H or OH if unused. Positions of bridges follow the written chain, without caps; N, C: chain ends. No end group written: not given here. *: point of attachment. Suc = O=C(CCC(=O)[*:2])[*:1]; Cbz = O=C(OCc1ccccc1)*; For = O=C*

aminopeptidase N on the surface of PC3 cells (human (endogenous in PC3)), sequence (P15144 whole entry): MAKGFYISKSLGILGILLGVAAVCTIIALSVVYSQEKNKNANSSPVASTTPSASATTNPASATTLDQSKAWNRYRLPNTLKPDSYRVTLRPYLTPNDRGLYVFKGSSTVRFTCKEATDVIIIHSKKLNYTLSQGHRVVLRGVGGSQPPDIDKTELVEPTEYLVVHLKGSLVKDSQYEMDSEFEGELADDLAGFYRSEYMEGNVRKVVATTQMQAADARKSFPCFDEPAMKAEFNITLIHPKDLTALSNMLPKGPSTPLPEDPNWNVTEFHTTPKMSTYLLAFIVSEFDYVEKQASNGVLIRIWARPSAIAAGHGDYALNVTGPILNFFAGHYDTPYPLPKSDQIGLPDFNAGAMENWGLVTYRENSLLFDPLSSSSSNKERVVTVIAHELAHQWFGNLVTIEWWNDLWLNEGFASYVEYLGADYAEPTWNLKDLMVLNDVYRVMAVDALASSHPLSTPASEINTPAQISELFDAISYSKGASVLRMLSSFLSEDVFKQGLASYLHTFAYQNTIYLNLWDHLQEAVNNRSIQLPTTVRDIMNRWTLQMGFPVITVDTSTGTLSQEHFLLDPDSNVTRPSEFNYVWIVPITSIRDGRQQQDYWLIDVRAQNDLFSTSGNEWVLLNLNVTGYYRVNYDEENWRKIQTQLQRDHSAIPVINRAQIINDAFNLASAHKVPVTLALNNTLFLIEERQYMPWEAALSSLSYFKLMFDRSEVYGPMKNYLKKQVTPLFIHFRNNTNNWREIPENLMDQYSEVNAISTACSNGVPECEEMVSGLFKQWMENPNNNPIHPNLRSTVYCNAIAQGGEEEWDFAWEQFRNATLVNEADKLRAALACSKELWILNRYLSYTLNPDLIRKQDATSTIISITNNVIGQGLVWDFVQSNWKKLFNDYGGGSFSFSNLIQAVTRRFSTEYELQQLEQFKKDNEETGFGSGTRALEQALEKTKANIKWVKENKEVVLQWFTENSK

As for RDLVD, the IC50 in assay [1] was above 500 µM.
As for CLHSPC (disulfide 1-6) [cyc-LHSP], in assay [1], the Ki turned out to be 121 µM.
Still for that read-out and setting: the figure for CADARKC (disulfide 1-7) [cyc-ADARK] is above 500 µM; for Cbz-LHSPW [Cbz-LHSPW] it is above 500 µM.
AHSPW: in assay [1], the IC50 was determined as 9.4 µM.
As for CLHSPWC (disulfide 1-7) [cyc-LHSPW], in assay [2], the tumor volume of PC3 xenografts at day 35, mice treated with 40 mg/kg cyc-LHSPW t.i.w. x4 (saline and cyc-NGR arms >1000 mm^3) stood at 309 mm^3. Also, the Ki in the assay with chymotrypsin is above 100 µM; in assay [1], 24.7 µM.
Take Ac-HSPW [Ac-HSPW]: the Ki in assay [1] was above 500 µM.
Same read-out and setting: the same measure for Cbz-HSPW [Cbz-HSPW]: above 500 µM.
Same read-out and setting: the same measure for For-HSPW [For-HSPW]: above 500 µM; for CLHSC (disulfide 1-5) [cyc-LHS]: above 500 µM; for For-LHSPW [For-LHSPW]: above 500 µM.
For the molecule FSLSK, in assay [1], the IC50 is above 500 µM.
As for Suc-HSPW [Suc-HSPW], the Ki in assay [1] was above 500 µM.
Consider DARK, for which the IC50 in assay [1] is above 500 µM.
The same measure, in the same setting: the figure for LHSPW is 10.6 µM.
Take CAHSPWC (disulfide 1-7) [cyc-AHSPW]: in assay [1], the Ki is above 500 µM.
The same measure, in the same setting: the same measure for Ac-LHSPW [Ac-LHSPW]: above 500 µM.
On to EHSPW, for which the IC50 in assay [1] is 115 µM.
Suc-LHSPW [Suc-LHSPW]: in assay [1], the Ki is above 500 µM.
On to PHSPW, for which the half-maximal inhibitory concentration (IC50) in assay [1] came out at 82.5 µM.
Still for that read-out and setting: the same measure for ADARK: above 500 µM.
SKSGQ: the IC50 in assay [1] was above 500 µM.
As to DSTF, the IC50 in assay [1] is above 500 µM.
Still for that read-out and setting: the same measure for INDFL: above 500 µM.
The same measure, in the same setting: the same measure for FYLRE: above 500 µM; for LDSTF: above 500 µM.
Still for that read-out and setting: the figure for AHLFN is above 500 µM; for FDWWG it is above 500 µM.
Turning to CPHSPWC (disulfide 1-7) [cyc-PHSPW], the Ki in assay [1] was above 500 µM.
Consider AHSTF, for which, in assay [1], the IC50 is above 500 µM.
Consider CLDSTFC (disulfide 1-7) [cyc-LDSTF], for which, in assay [1], the Ki is above 500 µM.
Turning to EPKVA, in assay [1], the IC50 was above 500 µM.
Same read-out and setting: the same measure for HSPW: 43.3 µM.
